These are literature values, as cited in paper PMC5116920.

The Kd is the concentration at which binding is half-saturated.

The data set has as its target Histone H4 (UniProt P62805).

Consider TAF1 BD (from UniProt P21675), for which the Kd was 100 µM.
